In patent publication US20250304687A1 (LTZ THERAPEUTICS, published 2025):

B1: 23D8/TRX4 (bispecific antibody, human IgG1, kappa, N297G)
light: AYDMTQTPASVEVAVGGTVTIKCQASQSISDNLSWYQQKPGQPPKLLIYDASDLASGVPSRFSGSGSGTEFTLTISDLEPADAATYYCQQDWISSNVDNTFGGGTEVVVKRTVAAPSVFIFPPSDEQLKSGTASVVCLLNNFYPREAKVQWKVDNALQSGNSQESVTEQDSKDSTYSLSSTLTLSKADYEKHKVYACEVTHQGLSSPVTKSFNRGEC
heavy: QSLEESGGGLVTPGGTLTLTCTVSGLSLSSNAINWVRQAPGKGLEWIGMIYSGGRIEYASWAKGRFTISKTSTTVDLKITSPTTEDTATYFCAKGMSPSAHSSDIWGPGTLVTVSASTKGPSVFPLAPSSKSTSGGTAALGCLVKDYFPEPVTVSWSSGALTSGVHTFPAVLQSSGLYSLSSVVTVPSSSLGTQTYICNVNHKPSNTKVDKKVEPKSCDKTHTCPPCPAPELLGGPSVFLFPPKPKDTLMISRTPEVTCVVVDVSHEDPEVKFNWYVDGVEVHNAKTKPREEQYGSTYRVVSVLTVLHQDWLNGKEYKCKVSNKALPAPIEKTISKAKGQPREPQVYTLPPSRDELTKNQVSLSCAVKGFYPSDIAVEWESNGQPENNYKTTPPVLDSDGSFFLVSKLTVDKSRWQQGNVFSCSVMHEALHNRFTQKSLSLSPGK
chain: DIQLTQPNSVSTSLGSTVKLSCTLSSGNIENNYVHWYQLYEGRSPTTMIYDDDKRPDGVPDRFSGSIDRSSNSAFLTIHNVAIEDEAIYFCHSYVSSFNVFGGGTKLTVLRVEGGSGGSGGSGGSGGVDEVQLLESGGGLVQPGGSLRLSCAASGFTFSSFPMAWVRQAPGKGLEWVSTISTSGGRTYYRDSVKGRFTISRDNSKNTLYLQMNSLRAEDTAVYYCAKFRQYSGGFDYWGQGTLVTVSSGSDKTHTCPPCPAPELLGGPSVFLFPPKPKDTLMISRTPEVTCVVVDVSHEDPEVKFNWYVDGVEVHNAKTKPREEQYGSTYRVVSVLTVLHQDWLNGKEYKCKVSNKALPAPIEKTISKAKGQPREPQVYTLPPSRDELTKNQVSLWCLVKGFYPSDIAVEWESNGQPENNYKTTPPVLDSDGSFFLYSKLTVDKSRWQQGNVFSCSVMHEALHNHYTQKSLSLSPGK
notes: Knob-into-hole format: anti-CD79b Fab arm (rabbit 23D8 variable regions on human IgG1/kappa) and anti-CD3 TRX4 (otelixizumab) scFv-Fc
B2: 23D8/38E4 (bispecific antibody, human IgG1, kappa, N297G)
light: B1 light
heavy: B1 heavy
chain: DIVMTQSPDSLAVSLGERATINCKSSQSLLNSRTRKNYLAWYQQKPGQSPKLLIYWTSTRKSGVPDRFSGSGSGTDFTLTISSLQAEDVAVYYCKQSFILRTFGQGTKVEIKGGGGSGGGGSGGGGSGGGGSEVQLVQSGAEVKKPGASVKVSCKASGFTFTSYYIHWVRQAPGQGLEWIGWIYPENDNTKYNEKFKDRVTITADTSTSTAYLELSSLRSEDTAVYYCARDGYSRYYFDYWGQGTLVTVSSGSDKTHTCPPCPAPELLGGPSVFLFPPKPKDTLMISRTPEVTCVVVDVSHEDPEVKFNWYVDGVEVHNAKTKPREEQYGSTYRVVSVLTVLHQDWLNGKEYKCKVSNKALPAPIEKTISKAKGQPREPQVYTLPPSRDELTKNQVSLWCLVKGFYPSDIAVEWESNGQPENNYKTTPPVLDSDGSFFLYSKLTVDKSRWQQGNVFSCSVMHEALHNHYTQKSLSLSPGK
notes: Knob-into-hole format: anti-CD79b 23D8 Fab arm and anti-CD3 38E4 scFv-Fc; also called CD79b/CD3 bispecific antibody 23D8/38E4
B3: 23D8/msnCD3 (bispecific antibody, human IgG1, kappa, N297G)
light: B1 light
heavy: B1 heavy
chain: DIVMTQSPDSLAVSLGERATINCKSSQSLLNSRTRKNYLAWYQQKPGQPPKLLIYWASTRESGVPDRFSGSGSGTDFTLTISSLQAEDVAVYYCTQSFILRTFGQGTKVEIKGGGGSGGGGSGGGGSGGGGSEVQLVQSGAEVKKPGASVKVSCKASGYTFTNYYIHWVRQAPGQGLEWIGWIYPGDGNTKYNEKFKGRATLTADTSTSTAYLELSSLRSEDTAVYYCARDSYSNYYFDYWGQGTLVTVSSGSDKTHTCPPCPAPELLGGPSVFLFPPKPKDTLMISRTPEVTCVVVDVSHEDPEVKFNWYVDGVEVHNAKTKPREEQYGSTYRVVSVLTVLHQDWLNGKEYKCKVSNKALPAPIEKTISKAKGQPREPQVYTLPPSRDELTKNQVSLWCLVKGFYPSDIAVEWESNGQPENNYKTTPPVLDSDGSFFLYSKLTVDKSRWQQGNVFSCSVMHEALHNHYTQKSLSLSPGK
notes: also called CD79b/CD3 bispecific antibody 23D8/msnCD3
B4: Pola/msnCD3 (bispecific antibody, human IgG1, kappa, N297G)
light: DIQLTQSPSSLSASVGDRVTITCKASQSVDYEGDSFLNWYQQKPGKAPKLLIYAASNLESGVPSRFSGSGSGTDFTLTISSLQPEDFATYYCQQSNEDPLTFGQGTKVEIKRTVAAPSVFIFPPSDEQLKSGTASVVCLLNNFYPREAKVQWKVDNALQSGNSQESVTEQDSKDSTYSLSSTLTLSKADYEKHKVYACEVTHQGLSSPVTKSFNRGEC
heavy: EVQLVESGGGLVQPGGSLRLSCAASGYTFSSYWIEWVRQAPGKGLEWIGEILPGGGDTNYNEIFKGRATFSADTSKNTAYLQMNSLRAEDTAVYYCTRRVPIRLDYWGQGTLVTVSSASTKGPSVFPLAPSSKSTSGGTAALGCLVKDYFPEPVTVSWSSGALTSGVHTFPAVLQSSGLYSLSSVVTVPSSSLGTQTYICNVNHKPSNTKVDKKVEPKSCDKTHTCPPCPAPELLGGPSVFLFPPKPKDTLMISRTPEVTCVVVDVSHEDPEVKFNWYVDGVEVHNAKTKPREEQYGSTYRVVSVLTVLHQDWLNGKEYKCKVSNKALPAPIEKTISKAKGQPREPQVYTLPPSRDELTKNQVSLSCAVKGFYPSDIAVEWESNGQPENNYKTTPPVLDSDGSFFLVSKLTVDKSRWQQGNVFSCSVMHEALHNRFTQKSLSLSPGK
chain: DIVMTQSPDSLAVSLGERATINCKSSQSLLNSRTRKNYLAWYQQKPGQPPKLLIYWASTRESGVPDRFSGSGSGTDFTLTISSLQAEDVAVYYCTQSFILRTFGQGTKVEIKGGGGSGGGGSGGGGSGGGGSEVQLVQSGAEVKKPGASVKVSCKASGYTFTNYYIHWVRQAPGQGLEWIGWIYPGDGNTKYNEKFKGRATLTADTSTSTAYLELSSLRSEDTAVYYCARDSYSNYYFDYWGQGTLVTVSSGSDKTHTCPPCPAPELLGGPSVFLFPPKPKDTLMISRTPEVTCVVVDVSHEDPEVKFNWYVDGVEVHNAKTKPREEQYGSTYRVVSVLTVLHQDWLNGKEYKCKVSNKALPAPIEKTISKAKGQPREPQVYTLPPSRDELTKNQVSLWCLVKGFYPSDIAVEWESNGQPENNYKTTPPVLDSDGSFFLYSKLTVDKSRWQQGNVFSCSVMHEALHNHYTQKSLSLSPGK
notes: also called CD79b/CD3 bispecific antibody Pola/msnCD3

Biological target: T1, human CD79b recombinant protein (human, UniProt P40259 29-159, limits assumed)
T1 construct: Coated on ELISA plates at 1 ug/ml
T1 sequence (looked up): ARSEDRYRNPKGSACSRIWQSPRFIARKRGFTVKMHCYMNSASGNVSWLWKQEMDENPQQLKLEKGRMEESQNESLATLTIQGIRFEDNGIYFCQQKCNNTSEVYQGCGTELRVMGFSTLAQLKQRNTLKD
Assay: ELISA, coated human CD79b recombinant protein
Procedure: The binding affinities of CD79b/CD3 bispecific antibodies to human CD79b recombinant protein were tested by ELISA. 1 μg/ml (in PBS buffer) of human CD79b recombinant protein was coated on ELISA plates overnight. ELISA plates were washed and blocked with blocking buffer (PBS+1% BSA) and then incubated with serial dilutions of primary CD79b/CD3 bispecific antibodies.

Binding result, binds:
B1
B2
B3
B4
